# Laboratory results as given in paper PMC10293810, “Multiple RNA- and DNA-binding proteins exhibit direct transfer of polynucleotides with implications for target-site search”.
# T1: TREX1 catalytic core (murine, UniProt Q91XB0 1-242)
# T1 sequence: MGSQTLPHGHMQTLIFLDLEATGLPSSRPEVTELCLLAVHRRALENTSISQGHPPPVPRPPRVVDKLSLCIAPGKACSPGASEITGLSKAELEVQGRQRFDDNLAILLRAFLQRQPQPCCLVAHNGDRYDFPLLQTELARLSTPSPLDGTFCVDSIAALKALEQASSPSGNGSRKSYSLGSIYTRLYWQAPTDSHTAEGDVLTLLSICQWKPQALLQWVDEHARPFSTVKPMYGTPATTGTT
# T2: TREX1 R174A,K175A (murine, UniProt Q91XB0 1-242, R174A;K175A)
# T2 sequence: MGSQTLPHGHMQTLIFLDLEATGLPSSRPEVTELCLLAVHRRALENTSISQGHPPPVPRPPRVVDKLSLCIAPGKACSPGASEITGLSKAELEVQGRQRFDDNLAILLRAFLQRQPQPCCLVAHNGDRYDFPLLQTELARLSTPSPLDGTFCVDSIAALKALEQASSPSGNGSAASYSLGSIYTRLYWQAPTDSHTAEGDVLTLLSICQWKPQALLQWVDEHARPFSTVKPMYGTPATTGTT
# T3: FBF-2 RNA-binding domain (Caenorhabditis elegans, UniProt Q09312 164-575)
# T3 sequence: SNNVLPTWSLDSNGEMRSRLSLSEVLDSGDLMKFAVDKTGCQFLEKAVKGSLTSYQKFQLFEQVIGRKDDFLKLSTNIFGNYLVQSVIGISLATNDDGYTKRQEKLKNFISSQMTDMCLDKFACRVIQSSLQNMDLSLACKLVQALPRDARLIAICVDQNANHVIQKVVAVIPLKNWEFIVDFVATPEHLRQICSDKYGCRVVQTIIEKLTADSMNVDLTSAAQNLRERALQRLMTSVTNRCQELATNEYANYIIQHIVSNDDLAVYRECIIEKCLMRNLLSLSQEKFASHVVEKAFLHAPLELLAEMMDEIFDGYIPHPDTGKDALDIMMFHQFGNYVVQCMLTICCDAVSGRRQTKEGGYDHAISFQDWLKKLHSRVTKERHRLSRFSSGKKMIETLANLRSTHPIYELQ
# Columns and labels:
# [1] = molecular target: T1, TREX1 catalytic core; assay: fluorescence polarization; 25 C; apparent Kd; FP with 5 nM ligand at 25 C (some FPCD at 4 C); buffer for MS2-CP (BB6): 100 mM Tris pH 7.5, 10 mM MgCl2, 80 mM KCl, 0.1 mg/mL BSA; other buffers not in material; conditions: protein: recombinant; tags: MBP fusion, cleaved by protease; chain copies: 2; label: 5' fluorophore (FP)
# [2] = molecular target: T2, TREX1 R174A,K175A; assay: as above; conditions: protein: recombinant; tags: MBP fusion, cleaved by protease (similar to WT); chain copies: 2; label: 5' fluorophore (FP)
# [3] = molecular target: hnRNP-U RNA-binding domain (human, UniProt Q00839 673-825); assay: as above; conditions: protein: recombinant; tags: N-terminal His-MBP fusion; label: fluorophore, 3' by name; G-quadruplex
# hnRNP-U RNA-binding domain, sequence (Q00839 673-825): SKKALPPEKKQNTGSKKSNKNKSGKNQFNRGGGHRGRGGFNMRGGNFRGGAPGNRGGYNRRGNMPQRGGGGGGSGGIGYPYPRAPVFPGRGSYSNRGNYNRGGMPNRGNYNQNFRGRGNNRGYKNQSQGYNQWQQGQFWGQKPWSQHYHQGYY
# [4] = molecular target: T4, MS2 coat protein V75E,A81G (MS2 bacteriophage, UniProt P03612 2-130, V76E;A82G); assay: fluorescence polarization; 25 C; apparent Kd, ligand 5 nM >= Kd so true Kd may be lower; FP with 5 nM ligand at 25 C (some FPCD at 4 C); buffer for MS2-CP (BB6): 100 mM Tris pH 7.5, 10 mM MgCl2, 80 mM KCl, 0.1 mg/mL BSA; other buffers not in material; conditions: protein: recombinant; tags: HisMBP fusion with 3C protease site; chain copies: 2; label: fluorophore; hairpin
# [5] = molecular target: T3, FBF-2 RNA-binding domain; assay: fluorescence polarization; 25 C; apparent Kd; FP with 5 nM ligand at 25 C (some FPCD at 4 C); buffer for MS2-CP (BB6): 100 mM Tris pH 7.5, 10 mM MgCl2, 80 mM KCl, 0.1 mg/mL BSA; other buffers not in material; conditions: protein: recombinant; label: 5' 6-FAM
# [6] = molecular target: T4, MS2 coat protein V75E,A81G; assay: competition; displaces [F]RNA2MS2; FP with 5 nM ligand at 25 C (some FPCD at 4 C); buffer for MS2-CP (BB6): 100 mM Tris pH 7.5, 10 mM MgCl2, 80 mM KCl, 0.1 mg/mL BSA; other buffers not in material; conditions: protein: recombinant; tags: HisMBP fusion with 3C protease site; chain copies: 2; hairpin
binder,measurement,setting,value
GACTG (ssDNA) [[F]d(N)5],Kd,[1],8.9 ± 3.8 nM
same,Kd,[2],46 ± 16 nM
GGGAAGGGAAGGGAAGGGAA (structured_RNA) [r(G3A2)4[F]],Kd,[3],15 ± 4.8 nM
GGACAUGAGGAUCACCCAUGU (structured_RNA) [[F]RNA2MS2],Kd,[4],2.9 ± 0.62 nM
AACAUGUGCCAUA (ssRNA) [[F]RNAPUF],Kd,[5],50 ± 9.2 nM
GGGACUGAGGAUCACCCAGUCUAU (structured_RNA) [RNA1MS2],binding result,[6],binds
